Data from US11786477B2, “Fibrin particles and methods of making the same” (NORTH CAROLINA STATE UNIVERSITY, priority 2017, dated 2023).

B1: FBN-KGF: Keratinocyte growth factor covalently coupled to FBN using carbodiimide and N-hydroxysulfosuccinimide (conjugate, UniProt P21781 32-194, looked up)
Fibroblast growth factor 7: CNDMTPEQMATNVNCSSPERHTRSYDYMEGGDIRVRRLFCRTQWYLRIDKRGKVKGTQEMKNNYNIMEIRTVAVGIVAIKGVESEFYLAMNKEGKLYAKKECNEDCNFKELILENHYNTYASAKWTHNGGEMFVALNQKGIPVRGKKTKKEQKTAHFLPMAIT
modifications: coupled to FBN nanoparticles
notes: Keratinocyte growth factor covalently coupled to FBN using carbodiimide and N-hydroxysulfosuccinimide
B2: free KGF: Keratinocyte growth factor (CYT-219, Prospec Protein Specialist) (protein, UniProt P21781 32-194, looked up)
Fibroblast growth factor 7: CNDMTPEQMATNVNCSSPERHTRSYDYMEGGDIRVRRLFCRTQWYLRIDKRGKVKGTQEMKNNYNIMEIRTVAVGIVAIKGVESEFYLAMNKEGKLYAKKECNEDCNFKELILENHYNTYASAKWTHNGGEMFVALNQKGIPVRGKKTKKEQKTAHFLPMAIT

Legend:
Human dermal fibroblasts = experiment: In vitro 3D collagen gel wound model, cell migration into biopsied wound; format: cell-based; details: 3D collagen gels, 20 μl sample into biopsied region, compared with saline and free KGF controls
Experimental: Human dermal fibroblasts (500,000 cells/ml) were embedded in 3D collagen gels (3 mg/ml) in serum-free culture media. Using biopsy punches, “wounds” 2 mm in diameter were created with approximately 0.5-1 mm depth. The biopsied 3D wounds were filled with fibrin nanoparticles (FBN), FBN with attached Keratinocyte Growth Factor (FBN-KGF) or saline (controls). The number of cells migrating into the hole from the surrounding 3D collagen gel was counted every 18-24 hours. Data from each sample was normalized to its biopsy area (in mm^2). The cell migration rate was measured by counting cell numbers within the normalized biopsy area (# cells/unit area) on each day. Each treatment was compared with saline and KGF only controls. […] Bulk fibrin sealants require high concentrations of fibrinogen and thrombin in order to induce fast polymerization at the surgical/wound site; by delivering prepolymerized FBNs we are able to circumvent this issue and without inhibiting migration.

[1] = test system: epithelial dorsal dermal wounds; experiment: In vivo dermal wound healing in mice; details: C57BF/6 mice; for 3-day average dermal area closure: 4 mm biopsy punch wounds, first 3 days; for slope of linear fit of average % normalized wound area: assuming linear healing rate of the first 3 days
Experimental: In vivo validation that fibrin nanoparticles can assist wound healing was performed in mice. Dermal wounds were created and the rate of healing measured over several days. Two epithelial dorsal dermal wounds were created in10-week-old healthy male […]/6 mice (Charles River Faboratories Wilmington, Mass.) using a 4 mm diameter biopsy punch. The skin was excised and the inner […] was removed using surgical tools. Wound healing due to skin refolding was prevented by stitching the surrounding skin to a sterilized silicone ring. The annular silicone ring was laser cut from a silicone sheet acquired from Grace Bio-Fabs, Bend, Oreg., to a required inner diameter of 4.9 mm. The silicone ring was held in position with stationary glue and stitches. […] Each wound was immediately imaged using a handheld Nikon camera and separately treated with control 0.9% saline, bulk fibrin gel (400 (μg), FBN (20 (μg), or FBN-KGF (20 μg at the highest concentration). After treatment, the wound was covered with translucent moisture responsive catheter dressing (IV3000, Smith & Nephew, Andover, Mass.) attached over the silicone ring. The porous sheet was also laser cut to the required dimensions to aid the surgeon and to match the wound area. The wound area was imaged using a handheld Nikon camera every 24 hours after removing the translucent dressing. Image analysis of the wound was performed in ImageJ and the scale was measured using the known inner diameter of the silicone ring. The % change in wound area on each day was compared its wound area in day 0 (day of biopsy). The rate of wound healing was quantified by plotting averaged % normalized wound area for each wound treatment. The slope of a linear fit of the average % normalized wound area for the first 3 days post biopsy was calculated in Prism and 2-way Anova statistics were performed to compare the slopes of each treatment (FIG. 9).

Molecule	cell recruitment / cell migration into 3D wound (Human dermal fibroblasts)	3-day average dermal area closure [1] [%]	slope of linear fit of average % normalized wound area [1]
B1	significantly enhanced cell recruitment and or cell proliferation	48±9	−16±3
B2	–	42±12	−14±2
